From the supplement of paper PMC10065799, “High-throughput profiling of sequence recognition by tyrosine kinases and SH2 domains using bacterial peptide display” (eLife, 2023)

These sequences were tested against Jak2 (UniProt O60674) (assay: phosphorylation enrichment, bacterial display (enrichment ratio); higher = better substrate or ligand; peptides without Tyr show the background).
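Also: 11-residue human phosphosite peptides and single-mutation variants displayed on the E. coli surface, counted by deep sequencing, each peptide's frequency after selection divided by its frequency in the unselected input library; frequency after pTyr selection over input frequency; kinase dosed for 20-30% of maximal phosphorylation in three min.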

Chain of Jak2 (O60674 whole entry, looked up): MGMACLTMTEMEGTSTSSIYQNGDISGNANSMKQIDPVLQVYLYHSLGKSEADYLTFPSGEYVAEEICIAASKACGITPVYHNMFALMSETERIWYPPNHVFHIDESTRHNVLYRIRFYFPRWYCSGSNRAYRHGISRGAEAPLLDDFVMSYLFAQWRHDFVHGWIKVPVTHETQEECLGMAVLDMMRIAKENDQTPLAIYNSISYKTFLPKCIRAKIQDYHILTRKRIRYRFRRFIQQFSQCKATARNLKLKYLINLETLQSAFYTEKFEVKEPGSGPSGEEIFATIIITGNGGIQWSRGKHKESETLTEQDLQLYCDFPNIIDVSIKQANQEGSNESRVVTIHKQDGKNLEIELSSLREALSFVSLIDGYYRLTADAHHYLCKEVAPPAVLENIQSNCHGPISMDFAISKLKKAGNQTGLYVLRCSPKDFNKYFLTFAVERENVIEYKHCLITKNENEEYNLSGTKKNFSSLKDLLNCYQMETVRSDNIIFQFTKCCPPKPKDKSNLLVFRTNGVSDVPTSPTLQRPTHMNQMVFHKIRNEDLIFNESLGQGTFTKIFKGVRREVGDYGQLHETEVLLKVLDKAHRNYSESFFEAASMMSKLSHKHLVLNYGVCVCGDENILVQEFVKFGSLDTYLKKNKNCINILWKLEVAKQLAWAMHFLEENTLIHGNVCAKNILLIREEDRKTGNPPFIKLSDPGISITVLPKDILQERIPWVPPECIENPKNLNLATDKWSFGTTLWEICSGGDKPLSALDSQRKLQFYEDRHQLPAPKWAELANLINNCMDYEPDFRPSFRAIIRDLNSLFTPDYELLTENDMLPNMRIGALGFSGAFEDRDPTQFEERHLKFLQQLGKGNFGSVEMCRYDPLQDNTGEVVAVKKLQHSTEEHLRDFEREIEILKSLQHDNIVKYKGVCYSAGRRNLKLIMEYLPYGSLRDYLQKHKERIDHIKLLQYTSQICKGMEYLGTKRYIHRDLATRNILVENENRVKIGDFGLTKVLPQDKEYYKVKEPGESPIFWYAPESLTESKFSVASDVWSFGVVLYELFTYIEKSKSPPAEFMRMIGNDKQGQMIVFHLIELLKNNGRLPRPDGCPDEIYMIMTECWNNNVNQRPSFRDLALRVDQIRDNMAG

Row | Sequence | phosphorylation enrichment
1 | AKAEIYEMRPL [COX10_Y97] | 0.77
2 | FDEFRYRSVIK [CFTR_Y517_YF] | 0.607
3 | SARSAYQEAMD [SFN_Y151] | 0.638
4 | VDTFWYKFLKP [EPM2A_Y86_R91P] | 1.05
5 | QQLQGYVPSNF [FRK_Y99_I100V_YF] | 1.52
6 | MAFDRYAAICS [OR8H2_Y123_H120Y_YF] | 1.2
7 | TINPIYEHVGY [CHN1_Y143] | 0.578
8 | VYSTDCYRVGG [NTRK2_Y706_Y706C] | 0.972
9 | GRQVIYTENER [GPR143_Y231_G229V] | 0.552
10 | RPDSPYSRLHD [DOK2_Y271_P274L] | 3.09
11 | SVVVSYEPPEV [TP53_Y220_P219S] | 0.808
12 | YEPDAYDDLDQ [ELP5_Y302] | 0.919
13 | QRAADYFSQQM [GBP6_Y333_YF] | 0.698
14 | RDEHGYISRCF [HSPB1_Y133_Q128R] | 1.53
15 | VITTLYIGFLG [KCNQ1_Y267_L262V] | 1.15
16 | STGRSYAGVAV [KLHL3_Y577] | 0.389
17 | KNNDGNIDFAE [MCFD2_Y135_Y135N_YF] | 1.21

Row | Sequence | phosphorylation enrichment
18 | EKNANYKEGTF [CLRN1_Y171_I168N_YF] | 0.635
19 | EKMWTYMPSAE [GRIA4_Y695_R697P] | 0.652
20 | TTKGSYSLYVR [HCK_Y180_S183Y] | 1.02
21 | FYLGAYDRFLP [SLC22A5_Y486_V481F] | 1.11
22 | FEEDSYVTRSQ [RET_Y905_K907T_YF] | 1.27
23 | DLAGRYYALRS [CKB_Y173_K177R] | 1.65
24 | ARGTRYRYVSQ [UCN3_Y95] | 0.437
25 | PGIRMYQVQFN [LRFN1_Y454_YF] | 0.789
26 | LEVPLYKNGVK [CPS1_Y1069_A1065E] | 0.643
27 | QTEAQYRFIYM [PTPN11_Y511] | 1.56
28 | RLLVVYSWTQR [HBB_Y36_P37S] | 1.37
29 | KACKHYLTKRT [ZBTB5_Y118_T121K] | 1.3
30 | STSKTYVISRT [RBBP6_Y87] | 0.527
31 | VDGSLYETHPQ [HK1_Y417_K418E] | 0.653
32 | KFMVGYEMLAK [GALT_Y339_Q344K] | 0.698
33 | IIEDPYFGNDF [ACP1_Y132_S137F_YF] | 1.3

What follows are sequences tested against EPHB1 (UniProt P54762) in the same assay as above.
Chain of EPHB1 (P54762 whole entry, looked up): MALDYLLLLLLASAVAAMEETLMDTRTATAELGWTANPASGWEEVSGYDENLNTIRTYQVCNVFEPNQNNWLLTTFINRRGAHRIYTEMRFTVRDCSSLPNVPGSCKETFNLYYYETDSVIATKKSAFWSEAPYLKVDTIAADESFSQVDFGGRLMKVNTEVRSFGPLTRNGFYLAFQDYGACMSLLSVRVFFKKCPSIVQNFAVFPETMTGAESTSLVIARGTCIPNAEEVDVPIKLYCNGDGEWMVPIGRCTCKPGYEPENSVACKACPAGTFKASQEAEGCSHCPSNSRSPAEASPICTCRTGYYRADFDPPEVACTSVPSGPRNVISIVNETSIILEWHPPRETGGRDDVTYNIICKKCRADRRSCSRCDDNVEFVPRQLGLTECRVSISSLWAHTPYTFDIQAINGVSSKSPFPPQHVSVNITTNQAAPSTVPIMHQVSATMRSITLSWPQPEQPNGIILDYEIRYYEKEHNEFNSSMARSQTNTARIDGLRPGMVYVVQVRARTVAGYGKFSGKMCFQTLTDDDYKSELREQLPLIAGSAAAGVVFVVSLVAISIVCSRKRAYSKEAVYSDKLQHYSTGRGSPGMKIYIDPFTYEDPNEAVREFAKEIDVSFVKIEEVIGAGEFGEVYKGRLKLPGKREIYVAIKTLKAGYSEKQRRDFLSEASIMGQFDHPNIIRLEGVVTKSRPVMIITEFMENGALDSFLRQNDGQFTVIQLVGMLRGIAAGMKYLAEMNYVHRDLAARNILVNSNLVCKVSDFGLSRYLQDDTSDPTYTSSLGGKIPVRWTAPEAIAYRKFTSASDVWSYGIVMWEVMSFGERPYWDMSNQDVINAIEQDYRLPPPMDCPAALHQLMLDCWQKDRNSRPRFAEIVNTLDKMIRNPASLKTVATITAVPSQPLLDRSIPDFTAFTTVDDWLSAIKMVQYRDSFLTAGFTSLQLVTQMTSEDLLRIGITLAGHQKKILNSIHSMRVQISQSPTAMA

Row | Sequence | phosphorylation enrichment
34 | AKAEIYEMRPL [COX10_Y97] | 11
35 | FDEFRYRSVIK [CFTR_Y517_YF] | 0.39
36 | SARSAYQEAMD [SFN_Y151] | 0.474
37 | VDTFWYKFLKP [EPM2A_Y86_R91P] | 0.644
38 | QQLQGYVPSNF [FRK_Y99_I100V_YF] | 0.653
39 | MAFDRYAAICS [OR8H2_Y123_H120Y_YF] | 0.893
40 | TINPIYEHVGY [CHN1_Y143] | 25.6
41 | VYSTDCYRVGG [NTRK2_Y706_Y706C] | 2.13
42 | GRQVIYTENER [GPR143_Y231_G229V] | 0.441
43 | RPDSPYSRLHD [DOK2_Y271_P274L] | 0.471
44 | SVVVSYEPPEV [TP53_Y220_P219S] | 0.519
45 | YEPDAYDDLDQ [ELP5_Y302] | 0.542
46 | QRAADYFSQQM [GBP6_Y333_YF] | 0.469
47 | RDEHGYISRCF [HSPB1_Y133_Q128R] | 0.789
48 | VITTLYIGFLG [KCNQ1_Y267_L262V] | 0.759
49 | STGRSYAGVAV [KLHL3_Y577] | 0.25
50 | KNNDGNIDFAE [MCFD2_Y135_Y135N_YF] | 0.504

Row | Sequence | phosphorylation enrichment
51 | EKNANYKEGTF [CLRN1_Y171_I168N_YF] | 0.346
52 | EKMWTYMPSAE [GRIA4_Y695_R697P] | 0.504
53 | TTKGSYSLYVR [HCK_Y180_S183Y] | 0.667
54 | FYLGAYDRFLP [SLC22A5_Y486_V481F] | 0.938
55 | FEEDSYVTRSQ [RET_Y905_K907T_YF] | 0.651
56 | DLAGRYYALRS [CKB_Y173_K177R] | 0.352
57 | ARGTRYRYVSQ [UCN3_Y95] | 0.39
58 | PGIRMYQVQFN [LRFN1_Y454_YF] | 0.467
59 | LEVPLYKNGVK [CPS1_Y1069_A1065E] | 0.715
60 | QTEAQYRFIYM [PTPN11_Y511] | 0.835
61 | RLLVVYSWTQR [HBB_Y36_P37S] | 1.04
62 | KACKHYLTKRT [ZBTB5_Y118_T121K] | 0.493
63 | STSKTYVISRT [RBBP6_Y87] | 0.387
64 | VDGSLYETHPQ [HK1_Y417_K418E] | 1.5
65 | KFMVGYEMLAK [GALT_Y339_Q344K] | 0.477
66 | IIEDPYFGNDF [ACP1_Y132_S137F_YF] | 0.664

Each sequence was assayed against FGFR1 (UniProt P11362) in the same assay as above.
Chain of FGFR1 (P11362 whole entry, looked up): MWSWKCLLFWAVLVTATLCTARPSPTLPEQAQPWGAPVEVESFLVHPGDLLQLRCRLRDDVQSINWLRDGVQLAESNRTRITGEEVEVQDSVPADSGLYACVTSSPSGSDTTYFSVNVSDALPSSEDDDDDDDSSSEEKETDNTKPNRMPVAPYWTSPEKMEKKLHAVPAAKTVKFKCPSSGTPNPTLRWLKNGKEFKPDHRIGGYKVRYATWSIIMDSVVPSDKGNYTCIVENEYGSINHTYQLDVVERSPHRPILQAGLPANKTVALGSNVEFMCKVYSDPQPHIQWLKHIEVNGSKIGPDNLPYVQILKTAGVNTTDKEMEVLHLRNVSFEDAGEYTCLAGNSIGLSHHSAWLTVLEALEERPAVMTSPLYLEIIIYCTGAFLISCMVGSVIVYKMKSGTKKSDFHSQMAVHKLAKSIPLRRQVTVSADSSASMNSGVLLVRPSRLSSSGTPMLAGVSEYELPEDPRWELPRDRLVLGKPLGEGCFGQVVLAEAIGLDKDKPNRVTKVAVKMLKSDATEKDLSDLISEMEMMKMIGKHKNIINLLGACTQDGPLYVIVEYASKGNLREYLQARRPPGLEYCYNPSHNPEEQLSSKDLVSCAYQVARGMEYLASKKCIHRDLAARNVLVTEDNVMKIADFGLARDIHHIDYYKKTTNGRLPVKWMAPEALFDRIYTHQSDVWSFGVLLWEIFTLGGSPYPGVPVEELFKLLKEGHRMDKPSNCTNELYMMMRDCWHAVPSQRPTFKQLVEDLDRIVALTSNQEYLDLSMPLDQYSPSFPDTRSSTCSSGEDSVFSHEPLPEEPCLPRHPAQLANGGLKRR

Row | Sequence | phosphorylation enrichment
67 | AKAEIYEMRPL [COX10_Y97] | 0.552
68 | FDEFRYRSVIK [CFTR_Y517_YF] | 0.466
69 | SARSAYQEAMD [SFN_Y151] | 0.418
70 | VDTFWYKFLKP [EPM2A_Y86_R91P] | 0.463
71 | QQLQGYVPSNF [FRK_Y99_I100V_YF] | 0.475
72 | MAFDRYAAICS [OR8H2_Y123_H120Y_YF] | 0.548
73 | TINPIYEHVGY [CHN1_Y143] | 1.01
74 | VYSTDCYRVGG [NTRK2_Y706_Y706C] | 0.787
75 | GRQVIYTENER [GPR143_Y231_G229V] | 0.435
76 | RPDSPYSRLHD [DOK2_Y271_P274L] | 0.552
77 | SVVVSYEPPEV [TP53_Y220_P219S] | 0.475
78 | YEPDAYDDLDQ [ELP5_Y302] | 0.56
79 | QRAADYFSQQM [GBP6_Y333_YF] | 0.558
80 | RDEHGYISRCF [HSPB1_Y133_Q128R] | 0.722
81 | VITTLYIGFLG [KCNQ1_Y267_L262V] | 0.692
82 | STGRSYAGVAV [KLHL3_Y577] | 0.482
83 | KNNDGNIDFAE [MCFD2_Y135_Y135N_YF] | 0.447

Row | Sequence | phosphorylation enrichment
84 | EKNANYKEGTF [CLRN1_Y171_I168N_YF] | 0.401
85 | EKMWTYMPSAE [GRIA4_Y695_R697P] | 0.448
86 | TTKGSYSLYVR [HCK_Y180_S183Y] | 0.464
87 | FYLGAYDRFLP [SLC22A5_Y486_V481F] | 0.712
88 | FEEDSYVTRSQ [RET_Y905_K907T_YF] | 0.452
89 | DLAGRYYALRS [CKB_Y173_K177R] | 0.963
90 | ARGTRYRYVSQ [UCN3_Y95] | 0.42
91 | PGIRMYQVQFN [LRFN1_Y454_YF] | 0.31
92 | LEVPLYKNGVK [CPS1_Y1069_A1065E] | 0.944
93 | QTEAQYRFIYM [PTPN11_Y511] | 1.65
94 | RLLVVYSWTQR [HBB_Y36_P37S] | 0.783
95 | KACKHYLTKRT [ZBTB5_Y118_T121K] | 0.629
96 | STSKTYVISRT [RBBP6_Y87] | 0.503
97 | VDGSLYETHPQ [HK1_Y417_K418E] | 0.441
98 | KFMVGYEMLAK [GALT_Y339_Q344K] | 0.776
99 | IIEDPYFGNDF [ACP1_Y132_S137F_YF] | 0.791

The sequences below were run against Hck (UniProt P08631) in the same assay as above.
Chain of Hck (P08631 whole entry, looked up): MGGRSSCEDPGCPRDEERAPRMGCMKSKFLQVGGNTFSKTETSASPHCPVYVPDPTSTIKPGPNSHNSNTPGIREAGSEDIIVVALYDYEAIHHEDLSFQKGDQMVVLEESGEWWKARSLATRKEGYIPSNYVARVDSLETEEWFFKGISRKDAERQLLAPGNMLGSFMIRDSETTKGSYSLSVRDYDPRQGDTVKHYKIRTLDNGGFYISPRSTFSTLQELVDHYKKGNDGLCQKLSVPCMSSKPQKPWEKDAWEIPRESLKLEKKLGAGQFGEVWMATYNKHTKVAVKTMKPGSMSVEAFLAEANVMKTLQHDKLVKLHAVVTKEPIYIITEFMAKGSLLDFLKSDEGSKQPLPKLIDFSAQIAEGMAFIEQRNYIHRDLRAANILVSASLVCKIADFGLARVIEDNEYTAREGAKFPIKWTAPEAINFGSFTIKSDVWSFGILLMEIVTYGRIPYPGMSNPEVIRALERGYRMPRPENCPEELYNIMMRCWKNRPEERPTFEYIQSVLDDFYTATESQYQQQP

Row | Sequence | phosphorylation enrichment
100 | AKAEIYEMRPL [COX10_Y97] | 12.1
101 | FDEFRYRSVIK [CFTR_Y517_YF] | 0.498
102 | SARSAYQEAMD [SFN_Y151] | 0.445
103 | VDTFWYKFLKP [EPM2A_Y86_R91P] | 0.426
104 | QQLQGYVPSNF [FRK_Y99_I100V_YF] | 0.802
105 | MAFDRYAAICS [OR8H2_Y123_H120Y_YF] | 0.76
106 | TINPIYEHVGY [CHN1_Y143] | 13.6
107 | VYSTDCYRVGG [NTRK2_Y706_Y706C] | 1.38
108 | GRQVIYTENER [GPR143_Y231_G229V] | 0.462
109 | RPDSPYSRLHD [DOK2_Y271_P274L] | 0.614
110 | SVVVSYEPPEV [TP53_Y220_P219S] | 0.632
111 | YEPDAYDDLDQ [ELP5_Y302] | 0.548
112 | QRAADYFSQQM [GBP6_Y333_YF] | 0.488
113 | RDEHGYISRCF [HSPB1_Y133_Q128R] | 0.755
114 | VITTLYIGFLG [KCNQ1_Y267_L262V] | 1.32
115 | STGRSYAGVAV [KLHL3_Y577] | 0.315
116 | KNNDGNIDFAE [MCFD2_Y135_Y135N_YF] | 0.539

Row | Sequence | phosphorylation enrichment
117 | EKNANYKEGTF [CLRN1_Y171_I168N_YF] | 0.381
118 | EKMWTYMPSAE [GRIA4_Y695_R697P] | 0.509
119 | TTKGSYSLYVR [HCK_Y180_S183Y] | 0.458
120 | FYLGAYDRFLP [SLC22A5_Y486_V481F] | 3.38
121 | FEEDSYVTRSQ [RET_Y905_K907T_YF] | 0.531
122 | DLAGRYYALRS [CKB_Y173_K177R] | 0.681
123 | ARGTRYRYVSQ [UCN3_Y95] | 0.469
124 | PGIRMYQVQFN [LRFN1_Y454_YF] | 0.384
125 | LEVPLYKNGVK [CPS1_Y1069_A1065E] | 0.655
126 | QTEAQYRFIYM [PTPN11_Y511] | 0.542
127 | RLLVVYSWTQR [HBB_Y36_P37S] | 0.698
128 | KACKHYLTKRT [ZBTB5_Y118_T121K] | 0.582
129 | STSKTYVISRT [RBBP6_Y87] | 0.465
130 | VDGSLYETHPQ [HK1_Y417_K418E] | 2.09
131 | KFMVGYEMLAK [GALT_Y339_Q344K] | 0.586
132 | IIEDPYFGNDF [ACP1_Y132_S137F_YF] | 0.823
